Results reported in the supplement of paper PMC10567573.

B1: SLC35F2 (parent)
chain: QYLAERYKVNTPMLQSFINYCLLF

Variants of: B1
Assay: protein stability index of a GFP-peptide fusion (GPS, HEK-293T) (PSI 1-6); higher = more stable
Conditions: c terminus: a fixed tail appended
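Note: lentivirally expressed fusions sorted by FACS into six bins by GFP to DsRed ratio, PSI derived from sequencing read proportions per bin multiplied by bin number.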

Variant	protein stability index
NYLAERYKVNTPMLQSFINYCLLF	2.15
LYLAERYKVNTPMLQSFINYCLLF	2.23
SYLAERYKVNTPMLQSFINYCLLF	2.47
KYLAERYKVNTPMLQSFINYCLLF	2.27
IYLAERYKVNTPMLQSFINYCLLF	2.1
VYLAERYKVNTPMLQSFINYCLLF	3.18
YYLAERYKVNTPMLQSFINYCLLF	2.86
TYLAERYKVNTPMLQSFINYCLLF	2.71
MYLAERYKVNTPMLQSFINYCLLF	2.43
WYLAERYKVNTPMLQSFINYCLLF	2.68
RYLAERYKVNTPMLQSFINYCLLF	1.94
PYLAERYKVNTPMLQSFINYCLLF	1.77
HYLAERYKVNTPMLQSFINYCLLF	1.53
QFLAERYKVNTPMLQSFINYCLLF	3.47
QMLAERYKVNTPMLQSFINYCLLF	1.24
QLLAERYKVNTPMLQSFINYCLLF	2.15
QHLAERYKVNTPMLQSFINYCLLF	1.89
QCLAERYKVNTPMLQSFINYCLLF	2.17
QGLAERYKVNTPMLQSFINYCLLF	2.52
QALAERYKVNTPMLQSFINYCLLF	2.29
QVLAERYKVNTPMLQSFINYCLLF	2.59
QPLAERYKVNTPMLQSFINYCLLF	1.74
QSLAERYKVNTPMLQSFINYCLLF	2.08
QILAERYKVNTPMLQSFINYCLLF	1.68

Variant	protein stability index
QTLAERYKVNTPMLQSFINYCLLF	2.29
QDLAERYKVNTPMLQSFINYCLLF	1.83
QKLAERYKVNTPMLQSFINYCLLF	2.17
QRLAERYKVNTPMLQSFINYCLLF	2.1
QWLAERYKVNTPMLQSFINYCLLF	2.26
QQLAERYKVNTPMLQSFINYCLLF	1.97
QELAERYKVNTPMLQSFINYCLLF	1.93
QNLAERYKVNTPMLQSFINYCLLF	2.61
QYPAERYKVNTPMLQSFINYCLLF	3.5
QYEAERYKVNTPMLQSFINYCLLF	1.45
QYNAERYKVNTPMLQSFINYCLLF	2.71
QYVAERYKVNTPMLQSFINYCLLF	2.34
QYIAERYKVNTPMLQSFINYCLLF	3.32
QYYAERYKVNTPMLQSFINYCLLF	2.34
QYHAERYKVNTPMLQSFINYCLLF	2.5
QYTAERYKVNTPMLQSFINYCLLF	2.7
QYSAERYKVNTPMLQSFINYCLLF	2.5
QYAAERYKVNTPMLQSFINYCLLF	3.3
QYQAERYKVNTPMLQSFINYCLLF	2.94
QYMAERYKVNTPMLQSFINYCLLF	2.5
QYCAERYKVNTPMLQSFINYCLLF	2.93
QYRAERYKVNTPMLQSFINYCLLF	2.98
QYDAERYKVNTPMLQSFINYCLLF	3
QYGAERYKVNTPMLQSFINYCLLF	2.92

Variant	protein stability index
QYFAERYKVNTPMLQSFINYCLLF	3.46
QYKAERYKVNTPMLQSFINYCLLF	2.43
QYLAERYSVNTPMLQSFINYCLLF	3.15
QYLAERYAVNTPMLQSFINYCLLF	2.54
QYLAERYWVNTPMLQSFINYCLLF	2.55
QYLAERYDVNTPMLQSFINYCLLF	2.44
QYLAERYTVNTPMLQSFINYCLLF	2.43
QYLAERYPVNTPMLQSFINYCLLF	2.35
QYLAERYGVNTPMLQSFINYCLLF	2.38
QYLAERYCVNTPMLQSFINYCLLF	3.39
QYLAERYRVNTPMLQSFINYCLLF	1.63
QYLAERYQVNTPMLQSFINYCLLF	2.13
QYLAERYLVNTPMLQSFINYCLLF	2.87
QYLAERYYVNTPMLQSFINYCLLF	3.27
QYLAERYMVNTPMLQSFINYCLLF	2.75
QYLAERYFVNTPMLQSFINYCLLF	3.46
QYLAERYVVNTPMLQSFINYCLLF	2.61
QYLAERYNVNTPMLQSFINYCLLF	2.22
QYLAERYEVNTPMLQSFINYCLLF	2.04
QYLAERYHVNTPMLQSFINYCLLF	2.64
QYLAERTKVNTPMLQSFINYCLLF	2.19
QYLAERAKVNTPMLQSFINYCLLF	3.17
QYLAEREKVNTPMLQSFINYCLLF	2.03
QYLAERDKVNTPMLQSFINYCLLF	2.49

Variant	protein stability index
QYLAERGKVNTPMLQSFINYCLLF	3.27
QYLAERMKVNTPMLQSFINYCLLF	1.62
QYLAERLKVNTPMLQSFINYCLLF	2.35
QYLAERIKVNTPMLQSFINYCLLF	2.21
QYLAERFKVNTPMLQSFINYCLLF	2.18
QYLAERQKVNTPMLQSFINYCLLF	3.26
QYLAERRKVNTPMLQSFINYCLLF	1.55
QYLAERVKVNTPMLQSFINYCLLF	2.92
QYLAERPKVNTPMLQSFINYCLLF	2.98
QYLAERKKVNTPMLQSFINYCLLF	2.53
QYLAERCKVNTPMLQSFINYCLLF	3.12
QYLAERSKVNTPMLQSFINYCLLF	2.48
QYLAERNKVNTPMLQSFINYCLLF	2.89
QYLAERHKVNTPMLQSFINYCLLF	2.95
QYLAERWKVNTPMLQSFINYCLLF	1.84
QYLAERYKVNGPMLQSFINYCLLF	2.28
QYLAERYKVNEPMLQSFINYCLLF	2.27
QYLAERYKVNHPMLQSFINYCLLF	2.19
QYLAERYKVNAPMLQSFINYCLLF	2.13
QYLAERYKVNFPMLQSFINYCLLF	2.04
QYLAERYKVNDPMLQSFINYCLLF	2.63
QYLAERYKVNCPMLQSFINYCLLF	3.08
QYLHERYKVNTPMLQSFINYCLLF	1.99
QYLIERYKVNTPMLQSFINYCLLF	2.65

Variant	protein stability index
QYLEERYKVNTPMLQSFINYCLLF	2.76
QYLTERYKVNTPMLQSFINYCLLF	3.02
QYLRERYKVNTPMLQSFINYCLLF	2.53
QYLDERYKVNTPMLQSFINYCLLF	2.26
QYLPERYKVNTPMLQSFINYCLLF	2.88
QYLKERYKVNTPMLQSFINYCLLF	3.59
QYLGERYKVNTPMLQSFINYCLLF	3.01
QYLMERYKVNTPMLQSFINYCLLF	3.1
QYLWERYKVNTPMLQSFINYCLLF	2.53
QYLNERYKVNTPMLQSFINYCLLF	3.76
QYLSERYKVNTPMLQSFINYCLLF	3.11
QYLVERYKVNTPMLQSFINYCLLF	3.22
QYLLERYKVNTPMLQSFINYCLLF	3.42
QYLCERYKVNTPMLQSFINYCLLF	3.16
QYLFERYKVNTPMLQSFINYCLLF	1.83
QYLYERYKVNTPMLQSFINYCLLF	2.38
QYLQERYKVNTPMLQSFINYCLLF	2.56
QYLATRYKVNTPMLQSFINYCLLF	2.14
QYLARRYKVNTPMLQSFINYCLLF	3.95
QYLANRYKVNTPMLQSFINYCLLF	2.62
QYLASRYKVNTPMLQSFINYCLLF	2.14
QYLALRYKVNTPMLQSFINYCLLF	2.72
QYLAQRYKVNTPMLQSFINYCLLF	2.72
QYLAGRYKVNTPMLQSFINYCLLF	2.03

Variant	protein stability index
QYLAFRYKVNTPMLQSFINYCLLF	3.74
QYLAHRYKVNTPMLQSFINYCLLF	3.1
QYLAVRYKVNTPMLQSFINYCLLF	4.14
QYLAYRYKVNTPMLQSFINYCLLF	2.14
QYLACRYKVNTPMLQSFINYCLLF	3.78
QYLAMRYKVNTPMLQSFINYCLLF	4.24
QYLAKRYKVNTPMLQSFINYCLLF	1.96
QYLAWRYKVNTPMLQSFINYCLLF	2.54
QYLADRYKVNTPMLQSFINYCLLF	2.88
QYLAPRYKVNTPMLQSFINYCLLF	2.34
QYLAARYKVNTPMLQSFINYCLLF	3.18
QYLAIRYKVNTPMLQSFINYCLLF	3.06
QYLAERYKRNTPMLQSFINYCLLF	1.86
QYLAERYKGNTPMLQSFINYCLLF	2.3
QYLAERYKYNTPMLQSFINYCLLF	2.06
QYLAERYKPNTPMLQSFINYCLLF	2.24
QYLAERYKWNTPMLQSFINYCLLF	1.98
QYLAERYKQNTPMLQSFINYCLLF	2.87
QYLAERYKFNTPMLQSFINYCLLF	3.49
QYLAERYKKNTPMLQSFINYCLLF	2.37
QYLAERYKTNTPMLQSFINYCLLF	2.4
QYLAERYKINTPMLQSFINYCLLF	2.51
QYLAERYKNNTPMLQSFINYCLLF	2.23
QYLAERYKMNTPMLQSFINYCLLF	2.54

Variant	protein stability index
QYLAERYKHNTPMLQSFINYCLLF	2.48
QYLAERYKLNTPMLQSFINYCLLF	2.6
QYLAERYKSNTPMLQSFINYCLLF	2.58
QYLAERYKANTPMLQSFINYCLLF	1.65
QYLAERYKCNTPMLQSFINYCLLF	2.68
QYLAERYKDNTPMLQSFINYCLLF	1.8
QYLAERYKENTPMLQSFINYCLLF	2.65
QYLAECYKVNTPMLQSFINYCLLF	2.86
QYLAEAYKVNTPMLQSFINYCLLF	2.7
QYLAEQYKVNTPMLQSFINYCLLF	2.34
QYLAEMYKVNTPMLQSFINYCLLF	2.25
QYLAESYKVNTPMLQSFINYCLLF	2.94
QYLAEVYKVNTPMLQSFINYCLLF	2.92
QYLAETYKVNTPMLQSFINYCLLF	2.97
QYLAEYYKVNTPMLQSFINYCLLF	1.16
QYLAEIYKVNTPMLQSFINYCLLF	2.56
QYLAEWYKVNTPMLQSFINYCLLF	2.51
QYLAEPYKVNTPMLQSFINYCLLF	3.62
QYLAEDYKVNTPMLQSFINYCLLF	1.99
QYLAEKYKVNTPMLQSFINYCLLF	2.42
QYLAENYKVNTPMLQSFINYCLLF	3.2
QYLAELYKVNTPMLQSFINYCLLF	2.11
QYLAEEYKVNTPMLQSFINYCLLF	2.72
QYLAEHYKVNTPMLQSFINYCLLF	3.38

Variant	protein stability index
QYLAEGYKVNTPMLQSFINYCLLF	2
QYLAERYKVITPMLQSFINYCLLF	2.88
QYLAERYKVGTPMLQSFINYCLLF	2.54
QYLAERYKVWTPMLQSFINYCLLF	2.29
QYLAERYKVVTPMLQSFINYCLLF	2.92
QYLAERYKVLTPMLQSFINYCLLF	3.17
QYLAERYKVMTPMLQSFINYCLLF	2.96
QYLAERYKVDTPMLQSFINYCLLF	2.83
QYLAERYKVRTPMLQSFINYCLLF	1.85
QYLAERYKVHTPMLQSFINYCLLF	2.71
QYLAERYKVETPMLQSFINYCLLF	2.2
QYLAERYKVKTPMLQSFINYCLLF	2.14
QYLAERYKVFTPMLQSFINYCLLF	2.88
QYLAERYKVQTPMLQSFINYCLLF	1.87
QYLAERYKVPTPMLQSFINYCLLF	1.68
QYLAERYKVTTPMLQSFINYCLLF	2.51
QYLAERYKVATPMLQSFINYCLLF	2.09
QYLAERYKVSTPMLQSFINYCLLF	2.36
QYLAERYKVYTPMLQSFINYCLLF	2.75
QYLAERYKVCTPMLQSFINYCLLF	2.2
